According to US20200297818A1 (ZEALAND PHARMA A S, published 2020):
Numbering of substitutions follows the chain as printed. *1 amine or outer side, *2 acyl side, *3 side chain or, on linkers, in order; H or OH if unused. Side-chain parts run from the residue outwards. [ ]: non-standard residue; d: D form. The star is where a group is joined. C20 diacid = O=C(O)CCCCCCCCCCCCCCCCCCC(=O)*; C18 diacid = O=C(O)CCCCCCCCCCCCCCCCC(=O)*; γGlu = O=C(O)[C@H](CCC(=O)[*:2])N[*:1]; AEEA = NCCOCCOCC(=O)O; Aib = CC(C)(N)C(=O)O

B1: Compound 47 (peptide)
peptide: H-H[Aib]EGTFSSELATILDK([AEEA-Lys-Glu-Lys-γGlu-C18 diacid])QAARDFIAWLIQHKITD-OH
B2: Teduglutide (peptide)
peptide: HGDGSFSDEMNTILDNLAARDFINWLIQTKITD
B3: Compound 52 (peptide)
peptide: H-H[Aib]EGTFTSELATILDK([AEEA-Lys-Glu-Lys-γGlu-C20 diacid])QAARDFIAWLIQHKITD-OH
B4: Compound 58 (peptide)
peptide: H-H[Aib]EGSFTSELATILDK([AEEA-Lys-Glu-Lys-γGlu-C20 diacid])QAARDFIAWLIAHKITD-OH
B5: Compound 61 (peptide)
peptide: H-H[Aib]EGSFTSELATILEGK([AEEA-Lys-Glu-Lys-γGlu-C20 diacid])AARDFIAWLIEHKITD-OH
B6: Compound 48 (peptide)
peptide: H-H[Aib]EGTFSSELATILDK([AEEA-Lys-Glu-Lys-γGlu-C20 diacid])QAARDFIAWLIQHKITD-OH
B7: Compound 57 (peptide)
peptide: H-H[Aib]EGSFTSELATILDK([AEEA-Lys-Glu-Lys-γGlu-C20 diacid])QAARDFIAWLIEHKITD-OH
B8: Compound 1 (peptide)
peptide: HXEGTFSSELATILDXEAARDFIAWLIEHKITD
HELM: PEPTIDE1{H.[Aib].E.G.T.F.S.S.E.L.A.T.I.L.D.K.E.A.A.R.D.F.I.A.W.L.I.E.H.K.I.T.D}|PEPTIDE2{[O=C(O)CCCCCCCCCCCCCCCCC(=O)[*:2]].[gGlu]}$PEPTIDE1,PEPTIDE2,16:R3-2:R2$$$V2.0
SMILES: CC[C@H](C)[C@H](NC(=O)[C@H](Cc1ccccc1)NC(=O)[C@H](CC(=O)O)NC(=O)[C@H](CCCNC(=N)N)NC(=O)[C@H](C)NC(=O)[C@H](C)NC(=O)[C@H](CCC(=O)O)NC(=O)[C@H](CCCCNC(=O)CC[C@H](NC(=O)CCCCCCCCCCCCCCCCC(=O)O)C(=O)O)NC(=O)[C@H](CC(=O)O)NC(=O)[C@H](CC(C)C)NC(=O)[C@@H](NC(=O)[C@@H](NC(=O)[C@H](C)NC(=O)[C@H](CC(C)C)NC(=O)[C@H](CCC(=O)O)NC(=O)[C@H](CO)NC(=O)[C@H](CO)NC(=O)[C@H](Cc1ccccc1)NC(=O)[C@@H](NC(=O)CNC(=O)[C@H](CCC(=O)O)NC(=O)C(C)(C)NC(=O)[C@@H](N)Cc1c[nH]cn1)[C@@H](C)O)[C@@H](C)O)[C@@H](C)CC)C(=O)N[C@@H](C)C(=O)N[C@@H](Cc1c[nH]c2ccccc12)C(=O)N[C@@H](CC(C)C)C(=O)N[C@H](C(=O)N[C@@H](CCC(=O)O)C(=O)N[C@@H](Cc1c[nH]cn1)C(=O)N[C@@H](CCCCN)C(=O)N[C@H](C(=O)N[C@H](C(=O)N[C@@H](CC(=O)O)C(=O)O)[C@@H](C)O)[C@@H](C)CC)[C@@H](C)CC
B9: Compound 2 (peptide)
peptide: B8 peptide with T5S, S7T
HELM: PEPTIDE1{H.[Aib].E.G.S.F.T.S.E.L.A.T.I.L.D.K.E.A.A.R.D.F.I.A.W.L.I.E.H.K.I.T.D}|PEPTIDE2{[O=C(O)CCCCCCCCCCCCCCCCC(=O)[*:2]].[gGlu]}$PEPTIDE1,PEPTIDE2,16:R3-2:R2$$$V2.0
SMILES: CC[C@H](C)[C@H](NC(=O)[C@H](Cc1ccccc1)NC(=O)[C@H](CC(=O)O)NC(=O)[C@H](CCCNC(=N)N)NC(=O)[C@H](C)NC(=O)[C@H](C)NC(=O)[C@H](CCC(=O)O)NC(=O)[C@H](CCCCNC(=O)CC[C@H](NC(=O)CCCCCCCCCCCCCCCCC(=O)O)C(=O)O)NC(=O)[C@H](CC(=O)O)NC(=O)[C@H](CC(C)C)NC(=O)[C@@H](NC(=O)[C@@H](NC(=O)[C@H](C)NC(=O)[C@H](CC(C)C)NC(=O)[C@H](CCC(=O)O)NC(=O)[C@H](CO)NC(=O)[C@@H](NC(=O)[C@H](Cc1ccccc1)NC(=O)[C@H](CO)NC(=O)CNC(=O)[C@H](CCC(=O)O)NC(=O)C(C)(C)NC(=O)[C@@H](N)Cc1c[nH]cn1)[C@@H](C)O)[C@@H](C)O)[C@@H](C)CC)C(=O)N[C@@H](C)C(=O)N[C@@H](Cc1c[nH]c2ccccc12)C(=O)N[C@@H](CC(C)C)C(=O)N[C@H](C(=O)N[C@@H](CCC(=O)O)C(=O)N[C@@H](Cc1c[nH]cn1)C(=O)N[C@@H](CCCCN)C(=O)N[C@H](C(=O)N[C@H](C(=O)N[C@@H](CC(=O)O)C(=O)O)[C@@H](C)O)[C@@H](C)CC)[C@@H](C)CC
B10: Compound 3 (peptide)
peptide: B8 peptide with S7T
HELM: PEPTIDE1{H.[Aib].E.G.T.F.T.S.E.L.A.T.I.L.D.K.E.A.A.R.D.F.I.A.W.L.I.E.H.K.I.T.D}|PEPTIDE2{[O=C(O)CCCCCCCCCCCCCCCCC(=O)[*:2]].[gGlu]}$PEPTIDE1,PEPTIDE2,16:R3-2:R2$$$V2.0
SMILES: CC[C@H](C)[C@H](NC(=O)[C@H](Cc1ccccc1)NC(=O)[C@H](CC(=O)O)NC(=O)[C@H](CCCNC(=N)N)NC(=O)[C@H](C)NC(=O)[C@H](C)NC(=O)[C@H](CCC(=O)O)NC(=O)[C@H](CCCCNC(=O)CC[C@H](NC(=O)CCCCCCCCCCCCCCCCC(=O)O)C(=O)O)NC(=O)[C@H](CC(=O)O)NC(=O)[C@H](CC(C)C)NC(=O)[C@@H](NC(=O)[C@@H](NC(=O)[C@H](C)NC(=O)[C@H](CC(C)C)NC(=O)[C@H](CCC(=O)O)NC(=O)[C@H](CO)NC(=O)[C@@H](NC(=O)[C@H](Cc1ccccc1)NC(=O)[C@@H](NC(=O)CNC(=O)[C@H](CCC(=O)O)NC(=O)C(C)(C)NC(=O)[C@@H](N)Cc1c[nH]cn1)[C@@H](C)O)[C@@H](C)O)[C@@H](C)O)[C@@H](C)CC)C(=O)N[C@@H](C)C(=O)N[C@@H](Cc1c[nH]c2ccccc12)C(=O)N[C@@H](CC(C)C)C(=O)N[C@H](C(=O)N[C@@H](CCC(=O)O)C(=O)N[C@@H](Cc1c[nH]cn1)C(=O)N[C@@H](CCCCN)C(=O)N[C@H](C(=O)N[C@H](C(=O)N[C@@H](CC(=O)O)C(=O)O)[C@@H](C)O)[C@@H](C)CC)[C@@H](C)CC
B11: Compound 55 (peptide)
peptide: H-H[Aib]EGSFTSEK([AEEA-AEEA-Lys-Glu-Lys-γGlu-C20 diacid])ATILDEQAARDFIAWLIEHKITD-OH
B12: Compound 60 (peptide)
peptide: H-H[Aib]EGSFTSELATILDK([AEEA-AEEA-Lys-Glu-Lys-γGlu-C20 diacid])QAARDFIAWLIEHKITD-OH
B13: Compound 59 (peptide)
peptide: H-H[Aib]EGSFTSELATILDK([AEEA-Lys-Glu-Lys-γGlu-C20 diacid])KAARDFIAWLIEHKITD-OH
B14: Compound 54 (peptide)
peptide: H-H[Aib]EGTFTSEK([AEEA-Lys-Glu-Lys-γGlu-C20 diacid])ATILDEQAARDFIAWLIEHKITD-OH
B15: Compound 62 (peptide)
peptide: H-H[Aib]EGSFTSELATILDAK([AEEA-Lys-Glu-Lys-γGlu-C20 diacid])AARDFIAWLIEHKITD-OH
B16: Compound 51 (peptide)
peptide: H-H[Aib]EGTFTSELATILDK([Lys-Glu-Lys-γGlu-C20 diacid])QAARDFIAWLIQHKITD-OH
B17: Compound 49 (peptide)
peptide: H-H[Aib]EGTFSSELATILDK([AEEA-Lys-Glu-Lys-γGlu-C18 diacid])QAARDFIAWLIEHKITD-OH
B18: Compound 50 (peptide)
peptide: H-H[Aib]EGTFSSELATILDK([AEEA-Lys-Glu-Lys-γGlu-C20 diacid])QAARDFIAWLIEHKITD-OH
B19: Compound 56 (peptide)
peptide: H-H[Aib]EGTFTSELATILDK([AEEA-Lys-Glu-Lys-γGlu-C20 diacid])QAARDFIAWLIEHKITD-OH
B20: Compound 53 (peptide)
peptide: H-H[Aib]EGSFTSEK([AEEA-Lys-Glu-Lys-γGlu-C20 diacid])ATILDEQAARDFIAWLIEHKITD-OH

What follows are binders tested against human glucagon-like peptide 1 receptor (GLP-1 R) (human, UniProt P43220 24-463) (assay: cell-based or functional assay).
B1 was tested, and the “EC50 GLP-1 (nM); cAMP response” value was 0.44 nM.
B2 was tested, and the “EC50 GLP-1 (nM); cAMP response” value was 39 nM.
In the case of B3, the “EC50 GLP-1 (nM); cAMP response” value is reported as 0.02 nM.
For B4, the “EC50 GLP-1 (nM); cAMP response” value was 0.089 nM.
With B5 the “EC50 GLP-1 (nM); cAMP response” value was 0.13 nM.
B6 was tested, and the “EC50 GLP-1 (nM); cAMP response” value was 0.47 nM.
With B7 the “EC50 GLP-1 (nM); cAMP response” value was 0.093 nM.
With B8 the “EC50 GLP-1 (nM); cAMP response” value was 0.63 nM.
In the case of B9, the “EC50 GLP-1 (nM); cAMP response” value is reported as 0.13 nM.
In the case of B10, the “EC50 GLP-1 (nM); cAMP response” value is reported as 0.042 nM.
B11 was tested, and the “EC50 GLP-1 (nM); cAMP response” value was 0.11 nM.
With B12 the “EC50 GLP-1 (nM); cAMP response” value was 0.097 nM.
In the case of B13, the “EC50 GLP-1 (nM); cAMP response” value is reported as 0.088 nM.
For B14, the “EC50 GLP-1 (nM); cAMP response” value was 0.034 nM.
In the case of B15, the “EC50 GLP-1 (nM); cAMP response” value is reported as 0.27 nM.
With B16 the “EC50 GLP-1 (nM); cAMP response” value was 0.02 nM.
B17 was tested, and the “EC50 GLP-1 (nM); cAMP response” value was 0.27 nM.
B18 was tested, and the “EC50 GLP-1 (nM); cAMP response” value was 0.31 nM.
B19 was tested, and the “EC50 GLP-1 (nM); cAMP response” value was 0.033 nM.
B20 was tested, and the “EC50 GLP-1 (nM); cAMP response” value was 0.076 nM.

Each binder was assayed against T1, human GLP-2 receptor (hGLP2-R) (human, UniProt O95838 1-553) (assay: cell-based or functional assay).
T1 sequence (looked up): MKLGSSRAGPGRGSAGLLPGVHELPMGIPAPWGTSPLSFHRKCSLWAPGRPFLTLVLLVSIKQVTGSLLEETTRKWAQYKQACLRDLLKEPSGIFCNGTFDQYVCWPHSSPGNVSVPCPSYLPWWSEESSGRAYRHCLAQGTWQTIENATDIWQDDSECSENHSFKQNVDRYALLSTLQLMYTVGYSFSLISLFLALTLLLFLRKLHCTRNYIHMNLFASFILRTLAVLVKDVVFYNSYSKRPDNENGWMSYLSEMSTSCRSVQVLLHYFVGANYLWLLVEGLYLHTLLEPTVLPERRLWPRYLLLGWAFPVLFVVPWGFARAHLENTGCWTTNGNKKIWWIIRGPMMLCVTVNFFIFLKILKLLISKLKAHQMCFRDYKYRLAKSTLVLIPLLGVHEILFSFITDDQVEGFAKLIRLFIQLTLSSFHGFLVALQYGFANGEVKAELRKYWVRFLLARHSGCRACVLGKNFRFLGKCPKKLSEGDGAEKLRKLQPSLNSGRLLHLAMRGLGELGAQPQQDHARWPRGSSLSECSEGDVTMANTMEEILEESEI
For B1, the “EC50 GLP-2 (nM); cAMP response” value was 0.048 nM.
In the case of B3, the “EC50 GLP-2 (nM); cAMP response” value is reported as 0.075 nM.
With B4 the “EC50 GLP-2 (nM); cAMP response” value was 0.09 nM.
For B5, the “EC50 GLP-2 (nM); cAMP response” value was 0.2 nM.
For B6, the “EC50 GLP-2 (nM); cAMP response” value was 0.054 nM.
B7 was tested, and the “EC50 GLP-2 (nM); cAMP response” value was 0.083 nM.
With B8 the “EC50 GLP-2 (nM); cAMP response” value was 0.35 nM.
For B9, the “EC50 GLP-2 (nM); cAMP response” value was 0.25 nM.
For B10, the “EC50 GLP-2 (nM); cAMP response” value was 0.33 nM.
For B11, the “EC50 GLP-2 (nM); cAMP response” value was 0.78 nM.
B12 was tested, and the “EC50 GLP-2 (nM); cAMP response” value was 0.074 nM.
With B13 the “EC50 GLP-2 (nM); cAMP response” value was 0.11 nM.
In the case of B14, the “EC50 GLP-2 (nM); cAMP response” value is reported as 0.99 nM.
With B15 the “EC50 GLP-2 (nM); cAMP response” value was 0.15 nM.
With B16 the “EC50 GLP-2 (nM); cAMP response” value was 0.18 nM.
For B17, the “EC50 GLP-2 (nM); cAMP response” value was 0.044 nM.
With B18 the “EC50 GLP-2 (nM); cAMP response” value was 0.056 nM.
B19 was tested, and the “EC50 GLP-2 (nM); cAMP response” value was 0.076 nM.
B20 was tested, and the “EC50 GLP-2 (nM); cAMP response” value was 0.24 nM.
